# Data from paper PMC3878992.
# Read-outs that look alike come from different tables or passages of the source.
# Columns and labels:
# [1] = molecular target: eIF4G1 (Saccharomyces cerevisiae) (UniProt P39935); conditions: cited from earlier work
# [2] = molecular target: Cy5-eIF4E(A124C) (S. cerevisiae) (UniProt P07260); assay: single-molecule FRET
# [3] = molecular target: Cy5-eIF4E(A124C) (S. cerevisiae) (UniProt P07260); assay: single-molecule FRET; remark: listed apart in the source
Molecule,Kd [1] [nM],Kd [2] [nM],Kd [3] [nM]
eIF4E (from UniProt P07260),< 15,–,–
eIF4G1 eIF4E-binding domain (4EBD) flanked by additional eIF4G1 sequence (amino acids 348-513) (domain or fragment) EETEVAETEQSNIDESATTPAIPTKSDEAEAEVEAEAGDAGTKIGLEAEIETTTDETDDGTNTVSHILNVLKDATPIEDVFSFNYPEGIEGPDIKYKKEHVKYTYGPTFLLQFKDKLNVKADAEWVQSTASKIVIPPGMGRGNRSRDSGRFGNNSSRGHDFRNTSV,–,20,25
full-length eIF4G1 (natural protein) MTDETAHPTQSASKQESAALKQTGDDQQESQQQRGYTNYNNGSNYTQKKPYNSNRPHQQRGGKFGPNRYNNRGNYNGGGSFRGGHMGANSSNVPWTGYYNNYPVYYQPQQMAAAGSAPANPIPVEEKSPVPTKIEITTKSGEHLDLKEQHKAKLQSQERSTVSPQPESKLKETSDSTSTSTPTPTPSTNDSKASSEENISEAEKTRRNFIEQVKLRKAALEKKRKEQLEGSSGNNNIPMKTTPENVEEKGSDKPEVTEKTKPAEEKSAEPEVKQETPAEEGEQGEKGQIKEESTPKVLTFAERLKLKKQQKEREEKTEGKENKEVPVQEETKSAIESAPVPPSEQVKEETEVAETEQSNIDESATTPAIPTKSDEAEAEVEAEAGDAGTKIGLEAEIETTTDETDDGTNTVSHILNVLKDATPIEDVFSFNYPEGIEGPDIKYKKEHVKYTYGPTFLLQFKDKLNVKADAEWVQSTASKIVIPPGMGRGNRSRDSGRFGNNSSRGHDFRNTSVRNMDDRANSRTSSKRRSKRMNDDRRSNRSYTSRRDRERGSYRNEEKREDDKPKEEVAPLVPSANRWVPKFKSKKTEKKLAPDGKTELLDKDEVERKMKSLLNKLTLEMFDAISSEILAIANISVWETNGETLKAVIEQIFLKACDEPHWSSMYAQLCGKVVKELNPDITDETNEGKTGPKLVLHYLVARCHAEFDKGWTDKLPTNEDGTPLEPEMMSEEYYAAASAKRRGLGLVRFIGFLYRLNLLTGKMMFECFRRLMKDLTDSPSEETLESVVELLNTVGEQFETDSFRTGQATLEGSQLLDSLFGILDNIIQTAKISSRIKFKLIDIKELRHDKNWNSDKKDNGPKTIQQIHEEEERQRQLKNNSRSNSRRTNNSSNRHSFRRDAPPASKDSFITTRTYSQRNSQRAPPPKEEPAAPTSTATNMFSALMGESDDEE,–,–,20
